Data as given in US20210283221A1.

Molecular target: human complement C5 with an unidentified amino acid substitution at Arg885 (in serum of the Example 4 patient) (human), P01031
Assay: cell-based or functional assay

B1: Coversin protein, Q5YD59 19-168 (protein)
chain: DSESDCTGSEPVDAFQAFSEGKEAYVLVRSTDPKARDCLKGEPAGEKQDNTLPVMMTFKNGTDWASTDWTFTLDGAKVTATLGNLTQNREVVYDSQSHHCHVDKVEKEVPDYEMWMLDAGGLEVEVECCRQKLEELASGRNQMYPHLKDC
B1 showed a residual CH50 (U Eq/ml) as % of baseline in serum of the Example 4 patient at Coversin approximately 15 ug/ml (% of baseline CH50) of under 5.
